Reference: publication PMC11234460, “In Silico Discovery of Stapled Peptide Inhibitor Targeting the Nur77‐PPARγ Interaction and Its Anti‐Breast‐Cancer Efficacy” (Advanced Science, 2024)
Bridges are numbered along the chain shown (N, C = ends). [ ]: non-standard residue; d: D form. S5 = C=CCCC[C@](C)(N)C(=O)O

Molecular target: LBD fragment of human Nur77 (residues 351–598) (human), P22736
Experiment: SPR
Conditions: S-pentenyl-alanine (S5) at the i and i + 4 positions (Phe163 & Ile167), joined by ring-closing olefin metathesis (all-hydrocarbon staple), C-terminal primary amide X8 and X12 = S5 (S-pentenyl-alanine, replacing Phe163 and Ile167 of PPARγ), joined by an i,i+4 all-hydrocarbon staple (ring-closing olefin metathesis), free N-terminal amine, Tyr14 replaces Leu169, residues 15-25 are t, modification not given

Chain of LBD fragment of human Nur77 (residues 351–598) (human), P22736 (P22736 351-598): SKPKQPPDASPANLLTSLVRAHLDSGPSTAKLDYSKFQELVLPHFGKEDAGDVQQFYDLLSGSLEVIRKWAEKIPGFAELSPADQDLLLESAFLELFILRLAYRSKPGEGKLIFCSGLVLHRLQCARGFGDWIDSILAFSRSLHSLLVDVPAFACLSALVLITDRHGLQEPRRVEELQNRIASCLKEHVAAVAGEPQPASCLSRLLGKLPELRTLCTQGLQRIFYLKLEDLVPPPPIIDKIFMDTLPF

H-CEGCKGF[S5]RRT[S5]RYYGRKKRRQRRR-NH2 (staple 8-12; cysteine pairing not given here) [ST-CY14 (stapled T-CY14), P37231 156-169]
koff: 0.052 s⁻¹
